Measurements published in paper PMC7820290 (Nature Communications, 2020).

Experiments:
Assay in all cases: […]; 5 mM HEPES pH 7.5, 80 mM KCl, 20 °C; […]
Settings in all cases: both partners purified
[1] = target: T1, SARS-CoV-2 N protein residues 247–419 (SARS-CoV-2, UniProt P0DTC9 247-419)
T1 construct: also called N^247–419

[2] = target: T2, SARS-CoV-2 N protein residues 175–419 (SARS-CoV-2, UniProt P0DTC9 175-419)
T2 construct: also called N^175–419

[3] = target: T3, SARS-CoV-2 N protein residues 175–364 (SARS-CoV-2, UniProt P0DTC9 175-364)
T3 construct: also called N^175–364

[4] = target: T4, SARS-CoV-2 nucleocapsid (N) protein, full length (419 aa) (SARS-CoV-2, UniProt P0DTC9 1-419)
T4 construct: also called N^1–419; N^FL

Measured: binding result

B1: soluble C-terminal domain of SARS-CoV-2 membrane (M) protein (aa 104–222 of 222) fused to GFP (domain or fragment)
chain: ARTRSMWSFNPETNILLNVPLHGTILTRPLLESELVIGAVILRGHLRIAGHHLGRCDIKDLPKEITVATSRTLSYYKLGASQRVAGDSGFAAYSRYRIGNYKLNTDHSSSSDNIALLVQ
notes: also called GFP-M^104–222
binds: [1] | [2] | [3] | [4]
